Measurements reported in the supplement of paper PMC9116672.
± gives the standard deviation of the averaged measurements or the uncertainty stated by the source.

Legend:
[1] = duplex formation enthalpy ΔH (Van't Hoff fit of HRM Tm); higher = less exothermic duplex formation; settings: temperature for dG: 50 °C, NaCl: 500 mM (unadjusted)
Protocol: (§1)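 Duplex of the listed DNA strand with its complement, in 1x NNE buffer (500 mM NaCl, pH 7.0) with 1x EvaGreen. ΔH and ΔS come from a Van't Hoff linear fit of 1/Tm against ln(CT/4) over 1-20 uM, using HRM Tm values.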

[2] = duplex melting temperature (HRM, EvaGreen); higher = more stable duplex
Protocol: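 Listed DNA strand annealed 1:1 with its complementary strand (95 °C 5 min, 0.1 °C/s to 20 °C). Melted in 1x NNE buffer (500 mM NaCl, 10 mM Na2HPO4, 1 mM EDTA, pH 7.0) with 1x EvaGreen on a LightCycler96 (37 to 97 °C, 0.1 °C/s). Tm is the peak of -dF/dT at the stated total duplex concentration; 4 replicates are averaged. PS oligos are non-stereospecific (Rp/Sp mixtures).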

[3] = duplex formation free energy ΔG50 (Van't Hoff fit of HRM Tm); higher = less stable duplex; settings: temperature for dG: 50 °C, NaCl: 500 mM (unadjusted)
Protocol: as §1

[4] = duplex formation entropy ΔS (Van't Hoff fit of HRM Tm); higher = smaller entropy loss on duplex formation; settings: temperature for dG: 50 °C, NaCl: 500 mM (unadjusted)
Protocol: as §1

[5] = backbone: PO-PO (both strands phosphodiester DNA)
[6] = backbone: PS-PO (listed strand fully phosphorothioate, complement phosphodiester)
[7] = backbone: PS-PS (both strands fully phosphorothioate)
[8] = duplex concentration 1 µM, backbone: PO-PO (both strands phosphodiester DNA)
[9] = duplex concentration 1 µM, backbone: PS-PO (listed strand fully phosphorothioate, complement phosphodiester)
[10] = duplex concentration 1 µM, backbone: PS-PS (both strands fully phosphorothioate)
[11] = duplex concentration 2.5 µM, backbone: PO-PO (both strands phosphodiester DNA)
[12] = duplex concentration 2.5 µM, backbone: PS-PO (listed strand fully phosphorothioate, complement phosphodiester)
[13] = duplex concentration 2.5 µM, backbone: PS-PS (both strands fully phosphorothioate)
[14] = duplex concentration 5 µM, backbone: PO-PO (both strands phosphodiester DNA)
[15] = duplex concentration 5 µM, backbone: PS-PO (listed strand fully phosphorothioate, complement phosphodiester)
[16] = duplex concentration 5 µM, backbone: PS-PS (both strands fully phosphorothioate)
[17] = duplex concentration 7.5 µM, backbone: PO-PO (both strands phosphodiester DNA)
[18] = duplex concentration 7.5 µM, backbone: PS-PO (listed strand fully phosphorothioate, complement phosphodiester)
[19] = duplex concentration 7.5 µM, backbone: PS-PS (both strands fully phosphorothioate)
[20] = duplex concentration 10 µM, backbone: PO-PO (both strands phosphodiester DNA)
[21] = duplex concentration 10 µM, backbone: PS-PO (listed strand fully phosphorothioate, complement phosphodiester)
[22] = duplex concentration 10 µM, backbone: PS-PS (both strands fully phosphorothioate)
[23] = duplex concentration 15 µM, backbone: PO-PO (both strands phosphodiester DNA)
[24] = duplex concentration 15 µM, backbone: PS-PO (listed strand fully phosphorothioate, complement phosphodiester)
[25] = duplex concentration 15 µM, backbone: PS-PS (both strands fully phosphorothioate)
[26] = duplex concentration 20 µM, backbone: PO-PO (both strands phosphodiester DNA)
[27] = duplex concentration 20 µM, backbone: PS-PO (listed strand fully phosphorothioate, complement phosphodiester)
[28] = duplex concentration 20 µM, backbone: PS-PS (both strands fully phosphorothioate)

Sequence | duplex formation enthalpy ΔH [1, 5] [kcal/mol] | duplex formation enthalpy ΔH [1, 6] [kcal/mol] | duplex formation enthalpy ΔH [1, 7] [kcal/mol] | duplex melting temperature [2, 8] [°C] | duplex melting temperature [2, 9] [°C] | duplex melting temperature [2, 10] [°C] | duplex melting temperature [2, 11] [°C] | duplex melting temperature [2, 12] [°C] | duplex melting temperature [2, 13] [°C] | duplex melting temperature [2, 14] [°C] | duplex melting temperature [2, 15] [°C] | duplex melting temperature [2, 16] [°C] | duplex melting temperature [2, 17] [°C] | duplex melting temperature [2, 18] [°C] | duplex melting temperature [2, 19] [°C] | duplex melting temperature [2, 20] [°C] | duplex melting temperature [2, 21] [°C] | duplex melting temperature [2, 22] [°C] | duplex melting temperature [2, 23] [°C] | duplex melting temperature [2, 24] [°C] | duplex melting temperature [2, 25] [°C] | duplex melting temperature [2, 26] [°C] | duplex melting temperature [2, 27] [°C] | duplex melting temperature [2, 28] [°C] | duplex formation free energy ΔG50 [3, 5] [kcal/mol] | duplex formation free energy ΔG50 [3, 6] [kcal/mol] | duplex formation free energy ΔG50 [3, 7] [kcal/mol] | duplex formation entropy ΔS [4, 5] [cal/mol/K] | duplex formation entropy ΔS [4, 6] [cal/mol/K] | duplex formation entropy ΔS [4, 7] [cal/mol/K]
CTGTAAGGCGATATGTT | -77.7 ± 2.5 | -72.7 ± 2.5 | -73.8 ± 1.5 | 62.12 ± 0.3 | 54.19 ± 0.32 | 46.56 ± 0.46 | 64 ± 0.26 | 57.45 ± 0.17 | 49.35 ± 0.22 | 66.38 ± 0.2 | 59.646 ± 0.025 | 51.33 ± 0.25 | 67.39 ± 0.14 | 60.55 ± 0.14 | 52.31 ± 0.059 | 68.42 ± 0.14 | 61.364 ± 0.05 | 53.15 ± 0.1 | 69.61 ± 0.1 | 62.62 ± 0.11 | 54.29 ± 0.068 | 70.55 ± 0.11 | 63.366 ± 0.049 | 55.12 ± 0.067 | -12.5 ± 0.13 | -10.76 ± 0.077 | -8.999 ± 0.015 | -202 ± 7.4 | -192 ± 7.4 | -201 ± 4.6
CAAACTTAGTAATCACGCCCAGCAACCA | -141 ± 8.4 | -149 ± 7.5 | -112 ± 3.5 | 78.3 ± 0.4 | 71.41 ± 0.5 | 62.3 ± 0.89 | 79.54 ± 0.39 | 72.56 ± 0.53 | 64.34 ± 0.43 | 80.55 ± 0.61 | 73.83 ± 0.46 | 65.81 ± 0.35 | 81.42 ± 0.21 | 74.22 ± 0.47 | 66.74 ± 0.11 | 82.09 ± 0.11 | 74.81 ± 0.22 | 67.319 ± 0.064 | 82.922 ± 0.079 | 75.66 ± 0.16 | 67.904 ± 0.048 | 83.591 ± 0.062 | 76.275 ± 0.049 | 68.51 ± 0.1 | -21 ± 0.74 | -19 ± 0.52 | -13.9 ± 0.17 | -372 ± 24 | -404 ± 22 | -303 ± 10
AGCACGGTGGTACAACA | -71.3 ± 2.6 | -78.6 ± 2 | -67.6 ± 3.5 | – | 60.27 ± 0.38 | 50.09 ± 0.18 | 67.58 ± 0.38 | 63.2 ± 0.2 | 53.82 ± 0.069 | 69.83 ± 0.28 | 65.28 ± 0.1 | 56.17 ± 0.085 | 71.17 ± 0.15 | 66.25 ± 0.082 | 57.1 ± 0.12 | 72.2 ± 0.18 | 67.06 ± 0.081 | 57.92 ± 0.08 | 73.4 ± 0.13 | 68.18 ± 0.11 | 59.07 ± 0.11 | 74.39 ± 0.17 | 69.05 ± 0.15 | 59.74 ± 0.13 | -12.8 ± 0.17 | -12.23 ± 0.093 | -9.892 ± 0.075 | -181 ± 7.5 | -205 ± 5.8 | -179 ± 11
TACTTCCAACGTAGG | -62.5 ± 1.4 | -61.3 ± 3 | – | – | 49.1 | 45.032 ± 0.023 | 59.72 ± 0.33 | 51.72 ± 0.075 | 45.59 ± 0.28 | 62 ± 0.17 | 55.02 ± 0.098 | 47.2 ± 0.46 | 63.52 ± 0.17 | 56.5 ± 0.21 | 48.26 ± 0.23 | 64.46 ± 0.077 | 57.42 ± 0.17 | 49.7 ± 0.78 | 66.07 ± 0.095 | 58.63 ± 0.099 | 50.85 ± 0.34 | 67.22 ± 0.12 | 59.46 ± 0.12 | 51.9 ± 0.73 | -10.98 ± 0.06 | -9.629 ± 0.064 | – | -159 ± 4.2 | -160 ± 9.1 | –
GAGGCAGCCGCGACCTG | – | -78.6 ± 3.5 | -76.7 ± 1.4 | – | – | 63.68 ± 0.2 | 79.56 ± 0.14 | 72.02 ± 0.12 | 66.28 ± 0.29 | 81.39 ± 0.49 | 74.37 ± 0.34 | 68.52 ± 0.17 | 82.28 ± 0.58 | 75.9 ± 0.24 | 69.83 ± 0.094 | 82.97 ± 0.38 | 76.878 ± 0.05 | 70.65 ± 0.094 | 83.76 ± 0.16 | 77.946 ± 0.052 | 71.79 ± 0.097 | 84.53 ± 0.52 | 78.61 ± 0.15 | 72.633 ± 0.05 | – | -14.3 ± 0.27 | -12.88 ± 0.078 | – | -199 ± 10 | -198 ± 4
GGTGGCGTTCTT | – | -45.3 ± 2.7 | -41.1 ± 3.2 | – | – | 40.15 ± 0.21 | 61.9 | – | 44.6 ± 0.65 | 63 ± 0.79 | – | 48.03 ± 0.26 | 64.6 ± 0.54 | 57 | 49.76 ± 0.44 | 65.58 ± 0.13 | 58.31 ± 0.53 | 51.3 ± 0.97 | 66.42 ± 0.23 | 60.44 ± 0.39 | 53.7 ± 1.4 | 67.68 ± 0.13 | 61.54 ± 0.24 | 55.8 ± 0.86 | – | -9.41 ± 0.08 | -8.491 ± 0.033 | – | -111 ± 8.2 | -101 ± 9.8
TTCGCGGTCTCCATTA | -59.2 ± 4.2 | -65.2 ± 2.1 | -60.9 ± 3 | – | – | 51.49 ± 0.12 | – | 60.46 ± 0.26 | 55.69 ± 0.27 | 68.99 ± 0.35 | 62.978 ± 0.054 | 58.1 ± 0.25 | 70.45 ± 0.55 | 64.448 ± 0.036 | 59.57 ± 0.46 | 71.62 ± 0.38 | 65.33 ± 0.18 | 60.56 ± 0.28 | 73.14 ± 0.38 | 66.71 ± 0.2 | 61.77 ± 0.089 | 74.63 ± 0.43 | 67.75 ± 0.63 | 62.58 ± 0.18 | -12 ± 0.26 | -11.23 ± 0.091 | -10.18 ± 0.084 | -146 ± 12 | -167 ± 6.1 | -157 ± 8.9
GCGGTTGGTGGCCAAC | -87 ± 3.6 | -80.6 ± 2.4 | -75.1 ± 2.4 | – | 63.49 ± 0.42 | 56.4 ± 0.12 | 72.845 ± 0.0061 | 65.54 ± 0.56 | 59.65 ± 0.13 | 74.66 ± 0.1 | 67.67 ± 0.49 | 61.64 ± 0.16 | 75.96 ± 0.21 | 68.96 ± 0.29 | 62.663 ± 0.048 | 76.8 ± 0.26 | 69.81 ± 0.25 | 63.516 ± 0.06 | 77.93 ± 0.21 | 71.07 ± 0.17 | 64.64 ± 0.11 | 78.54 ± 0.17 | 71.91 ± 0.09 | 65.39 ± 0.087 | -14.9 ± 0.28 | -12.9 ± 0.13 | -11.29 ± 0.089 | -223 ± 10 | -209 ± 7.1 | -197 ± 7.2
TTTGGGTTAGTAAGAAGGCAGCAGTTGGGC | -194 ± 7.9 | -163 ± 7.3 | -138 ± 2.7 | 80.77 ± 0.16 | 73.49 ± 0.58 | 64.9 ± 0.6 | 81.98 ± 0.11 | 74.54 ± 0.53 | 66.58 ± 0.4 | 82.782 ± 0.065 | 75.49 ± 0.43 | 67.7 ± 0.32 | 83.39 ± 0.22 | 76.34 ± 0.31 | 68.34 ± 0.25 | 83.787 ± 0.08 | 76.74 ± 0.24 | 68.92 ± 0.12 | 84.24 ± 0.16 | 77.38 ± 0.2 | 69.54 ± 0.097 | 85 | 77.939 ± 0.056 | 70.01 ± 0.096 | -26.6 ± 0.73 | -20.7 ± 0.54 | -15.88 ± 0.14 | -517 ± 22 | -439 ± 21 | -377 ± 7.9
